Assay: yeast display, Sf9 membrane polyspecificity reagent, FACS + sequencing; frameworks hold sequencing errors
Procedure, shortened: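 After 36–48 hours of galactose induction, yeast (Saccharomyces cerevisiae BJ5465) displaying a synthetic nanobody library were stained at 4 °C for 1 hour with 10% biotinylated, detergent-solubilized Sf9 membrane reagent. Streptavidin microbeads enriched the stained cells before FACS sorting into low and high (top ~1%) gates on anti-HA and streptavidin fluorescence. Each clone's polyreactivity label reflects its gate of origin.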

Which “polyreactivity (PSR sort gate)” value does the source give for “QVQLVESGGGLVQAGGSLRLSCAASGSIVGSYAMGWYRQAPGKERELVAGIRSGGSTYYADSVKGRFTISRDNAKNTVYLQMNSLKPEDTAVYYCAGHEEYWGHGTQVTVSS” here?
Its value is “low polyreactivity”.

For “QVQLVESGGGLVQAGGSLRLSCAASGSIVPTYAMGWYRQAPGKERELVAAIRSGSNTYYADSVKGRFTISRDNAKNTVYLQMNSLKPEDTAVYYCNVGPQRKYPGRRTVPFGYWGQGTQVTVSS”, which “polyreactivity (PSR sort gate)” value is on record?
Its value is “low polyreactivity”.

With “QVQLVESGGGLVQAGGSLRLSCAASGSIYAINVMGWYRQAPGKERDFDAAISVRSGSTYYADSVKGRITISRDNAKNTVYLQMNSLKPEDTAVIYCAARTSRFWRGGGLDYWGQGTQVTGSS” as the sequence, how does the “polyreactivity (PSR sort gate)” value read?
Its value is “high polyreactivity”.

For “QVQLVESGGGLVQAGGSLRLSCAASGSIYARNAMGWYRQAPGKERELVAAIRYSGGSTYYADSVKGRFTISRDNAKNTVYLQMNSLKPEDTAVYYCAARWGVFGYYYWGQGTQVTVSS”, which “polyreactivity (PSR sort gate)” value is on record?
Its value is “high polyreactivity”.

With “QVQLVESGGGLVQAGGSLRLSCAASGSIYDYNTMGWYRQAPGKERELVAAISASGGRTYYADSEKGRFTISRDNAKNTVYLQMNSLKPEDTAVYYCARYYIGYYERFGYDYWGQGTQVTVSS” as the sequence, how does the “polyreactivity (PSR sort gate)” value read?
The value was “high polyreactivity”.

With “QVQLVESGGGLVQAGGSLRLSCAASGSIYFLYAMGWYRQAPGKERELVAAISWSVDRTYYADSVKGRFTISRDNAKNTVYLQMNSLKPEDTAVYYCAAVHWWSSSLRMYYWGQGTQVTVSS” as the sequence, how does the “polyreactivity (PSR sort gate)” value read?
Its value is “low polyreactivity”.

With “QVQLVESGGGLVQAGGSLRLSCAASGSIYGRNAMGWYRQAPGKERELFAAISSSGGRTYYADSVKGRFTISRDNAKNTVYLQMNSLKPEDTAVYYCAADASYARYYSQYDYWGQGTQVTVSS” as the sequence, how does the “polyreactivity (PSR sort gate)” value read?
The value was “high polyreactivity”.

For “QVQLVESGGGLVQAGGSLRLSCAASGSIYIVNVMGWYRQAPGKERELVAGITTNGGITYYADSVKGRFTISRDNAKNTVYLQMNSLKPEDTAVYYCATRSGSPSSIEMDYWGQGTQVTVSS”, which “polyreactivity (PSR sort gate)” value is on record?
Its value is “low polyreactivity”.

For “QVQLVESGGGLVQAGGSLRLSCAASGSIYPFYAMGWYRQAPGKERELVATISSGDSTHYADSVKGRFTISRDNAKNTVYEQMNSLKPEDTAVYYCNRRNKAQRFFDLGYWGQGTQVTVSS”, which “polyreactivity (PSR sort gate)” value is on record?
The value was “low polyreactivity”.

For “QVQLVESGGGLVQAGGSLRLSCAASGSIYRYTMGWYRQAPGKERELVASISLSGGRTYYADSVKGRFTISRDNAKNTVYLQMNSLKPEDTAVYDCGTDNRYRSSGQWIRRGYWGQGTQVTVSS”, which “polyreactivity (PSR sort gate)” value is on record?
Its value is “high polyreactivity”.

With “QVQLVESGGGLVQAGGSLRLSCAASGSIYSYNVMGWYRQAPGKERELVAAITRSGGSTYYADSVKGRFTISRDNAKNTVYLQMNSLKPEDTAVYYCATAYYSTPFREYSYWGQGTQVTVSS” as the sequence, how does the “polyreactivity (PSR sort gate)” value read?
Its value is “low polyreactivity”.

Which “polyreactivity (PSR sort gate)” value does the source give for “QVQLVESGGGLVQAGGSLRLSCAASGSIYTNAMGWYRQAPGKERELVAAISKRGGSTNYADSVKGRFTISRDNAKNTVYLQMNSLKPEDTAVYYCNRTGSTGYVQVWRPGDYWGQGTQVTVSS” here?
Its value is “high polyreactivity”.

For “QVQLVESGGGLVQAGGSLRLSCAASGSIYVLYAMGWYRQAPGKERELVAAISRGVGGKNYADSVKGRFTISRDNAKNTVYLQMNSLIPEDTAVYYCAAQTLRWSHYYYWGQGTQVTVSS”, which “polyreactivity (PSR sort gate)” value is on record?
Its value is “high polyreactivity”.

Which “polyreactivity (PSR sort gate)” value does the source give for “QVQLVESGGGLVQAGGSLRLSCAASGSIYVNKAMGWYRQAPGKERELVAAISRSGTRTYYADSVKGRFTISRDNAKNTVYLQMNSLKPEDTAVYYCAVDYYYRMDYWGQGTQVTVSS” here?
Its value is “high polyreactivity”.

With “QVQLVESGGGLVQAGGSLRLSCAASGSIYVYNAMGWYRQAPGKERELVAAIDTVGSTNYADSVKGRFTISRDNAKNTVYLQMNSLKPEDTAVYYCAVVTPYWSFYDQVIPSNYWGEGTQVTVSS” as the sequence, how does the “polyreactivity (PSR sort gate)” value read?
The value was “low polyreactivity”.

Which “polyreactivity (PSR sort gate)” value does the source give for “QVQLVESGGGLVQAGGSLRLSCAASGSIYWLYAMGWYRQAPGKERELVAAITWSGGRTYYADSVKGRFTISRDNAKYNVYLQMNSLKPEDTAVYYCARRQRPGYSNPARGGKYDYWGQGTQVTVSS” here?
Its value is “low polyreactivity”.

With “QVQLVESGGGLVQAGGSLRLSCAASGSIYWNTMGWYRQAPGKERELVAGISSSGDSTYYADSVKGRFTISRDNAKNTVYLQMNSLKPEDTAVYYCAARTRRFRYYYWGQGTQVTVSS” as the sequence, how does the “polyreactivity (PSR sort gate)” value read?
The value was “high polyreactivity”.

For “QVQLVESGGGLVQAGGSLRLSCAASGSIYYYAMGWYRQAPGKEMELVAAITRSGGGTYYADSVKGRFTISRDNAKNTVYLQMNSLKPEDTAVYYCAAARYSRAQPNWTYNYWGQGTQVTVSS”, which “polyreactivity (PSR sort gate)” value is on record?
Its value is “high polyreactivity”.

For “QVQLVESGGGLVQAGGSLRLSCAASGSLFQPNDRGWYRQAPGKERELVASIRGRGGDTYYADSVKGRFTISRDNAKNTVYLQMNSLKPEDTGGYDCAADYRWGQGTQVTVSS”, which “polyreactivity (PSR sort gate)” value is on record?
Its value is “low polyreactivity”.

With “QVQLVESGGGLVQAGGSLRLSCAASGSLFSGYTMAWYSQAPGKERELVAAITRSGGRTYYADSVKGRFTISRDNAKNTVYLQMKSLKPEVTAVNYCAAVDRRGANYNYWGQGTQVTVSS” as the sequence, how does the “polyreactivity (PSR sort gate)” value read?
Its value is “high polyreactivity”.

Which “polyreactivity (PSR sort gate)” value does the source give for “QVQLVESGGGLVQAGGSLRLSCAASGSLFYSYAMGWDRPAPGKERELVAAIRRDGSTNYADSVKGRFTISRDNAKNTVYLQMNSLKPEDTAVYYCNADGWNTYIGPRRYRYDYWGQGTQVTVSS” here?
The value was “low polyreactivity”.

Which “polyreactivity (PSR sort gate)” value does the source give for “QVQLVESGGGLVQAGGSLRLSCAASGSLFYVYAMGWYRQAPGKERELVAAITNYADSVKGRFTISRDNAKNTVYLQMNSLKPEDTAVYYCAADWWRVEMDYWGQGSQVTVSS” here?
The value was “low polyreactivity”.

Which “polyreactivity (PSR sort gate)” value does the source give for “QVQLVESGGGLVQAGGSLRLSCAASGSMFAAYAMGWYRQAPGKARELVAAISSGDGTYYADSVKGRFTISRDNAKNTVYLQRNSLKPEDTAVYYCNAYVSQRYRGSRYYYWGQGTQVTLSS” here?
Its value is “high polyreactivity”.

For “QVQLVESGGGLVQAGGSLRLSCAASGSMFSHYTMGWYRQAPGQERELVAAITNGGITNYADAVKGRFTISRDNAKNTVYLQMNSLKPEDTAVYYCAADWWYGYSNYDYWGQGTQVTVSS”, which “polyreactivity (PSR sort gate)” value is on record?
The value was “low polyreactivity”.

For “QVQLVESGGGLVQAGGSLRLSCAASGSMFVTNALGWYRQAPGTERELVAAMSVSGGSTYYADSVKGRFTISRDNAKNTVDLQMNSLKPEDTAVYYCNTVRSPPGHDYWGQGTQVTVSS”, which “polyreactivity (PSR sort gate)” value is on record?
Its value is “low polyreactivity”.

With “QVQLVESGGGLVQAGGSLRLSCAASGSNFAKNAMGWYRQAPGKERELVAAITSSGGSTYYADSVKGRFTISRDNAKNTVYLQMNSLNPEDTAVYYCARPNDWYHYHGWYWSIYRYDYWGQGTQVTVSS” as the sequence, how does the “polyreactivity (PSR sort gate)” value read?
The value was “high polyreactivity”.

For “QVQLVESGGGLVQAGGSLRLSCAASGSNFDTYAMGWYRQAPGKESELVAAITRRAGSTYYADSVKGRFTISRDNAKYTVYLQMNSLKPEDTAVYYCAADFRYPDNYGGYDYWGQGTQVTVSS”, which “polyreactivity (PSR sort gate)” value is on record?
Its value is “low polyreactivity”.

With “QVQLVESGGGLVQAGGSLRLSCAASGSNFGEYAMGWYIQAPGKERELVAAISYRGGSTYYADSVKGRFTISRDNAKNTVYLQMNSLKPEDTAVYYCNRDRRRRGAYGRPGGDHWGQGTQVTVSS” as the sequence, how does the “polyreactivity (PSR sort gate)” value read?
Its value is “high polyreactivity”.

With “QVQLVESGGGLVQAGGSLRLSCAASGSNFGIYAMGWYRQAPGKERELVAAISSRGSTYYADSVKGRFTISRDNAKNTVYLQMNSLKPEDTAVYYCAAGYAWYNYWGQGTQVTVSS” as the sequence, how does the “polyreactivity (PSR sort gate)” value read?
The value was “high polyreactivity”.

For “QVQLVESGGGLVQAGGSLRLSCAASGSNFGRYVMGWYRQAPGKERELVAAITRTGVRTYYADSVKGRFTISRDNANNTVYLQINSLKPEDTAVYYCNRYGARSNDYWGQGTQVTESS”, which “polyreactivity (PSR sort gate)” value is on record?
The value was “low polyreactivity”.

For “QVQLVESGGGLVQAGGSLRLSCAASGSNFGSNAMGWYRQAPGKERELVATISGRGGSTYYADSVKGRFTISRDNAKNTVYLQMNSLKPEDTAVYYCAKDRRTWRYGQVFSPYYYWGQGTQVTVSS”, which “polyreactivity (PSR sort gate)” value is on record?
The value was “low polyreactivity”.

For “QVQLVESGGGLVQAGGSLRLSCAASGSNFGVNAMGGYRQAPGKERELVAAITSGGGTYYTDSVKGRFTISRDNAKKTVYLQKNSLKPEATAVYYCMARVRGKQLVGRYDYWGQGTQVTVSS”, which “polyreactivity (PSR sort gate)” value is on record?
Its value is “high polyreactivity”.

Which “polyreactivity (PSR sort gate)” value does the source give for “QVQLVESGGGLVQAGGSLRLSCAASGSNFHPNAMGSCRQAPGKERELVAAITKSGGSTYYADSVKGRFTISRDNAKNTVYLQMNSRKPEDTAVYYCNALRYRRVGTLGYDYWGQATQVTVSS” here?
Its value is “high polyreactivity”.

With “QVQLVESGGGLVQAGGSLRLSCAASGSNFKSNAMGLYRPAPGKERELVAAINRSGAGTYYADSVKGRFTISRDNAKNTVYLQMNSLKPEDTAVYYCAAQSYSRRYDYWGQGTQVTVSS” as the sequence, how does the “polyreactivity (PSR sort gate)” value read?
Its value is “high polyreactivity”.

For “QVQLVESGGGLVQAGGSLRLSCAASGSNFLTYAMGRYRQAPGKEREFVAAISTSGVSTYYADSVKGRFTISRDNAKNTVYLQMNSLKPEDTAVYFCAAVYDLGYYGPIWAIVLDDYWGQGTQVTVSS”, which “polyreactivity (PSR sort gate)” value is on record?
The value was “low polyreactivity”.

With “QVQLVESGGGLVQAGGSLRLSCAASGSNFNYYTMGWYRQAPGKERELVAAITDSGGSTYYADSVMGRFTISRDNAKNTVYLQMNSLIPEDTAVYYCAAAVPELYEVRYHADYWGQGTQVTVST” as the sequence, how does the “polyreactivity (PSR sort gate)” value read?
The value was “low polyreactivity”.

With “QVQLVESGGGLVQAGGSLRLSCAASGSNFPSYAMGWYTKAPGEEMEFVARISRGDDSTYYADSVKGRFTISRDNAKNTVYLQMNSLKPEDTAVYYCAADYPDVVYLEYDYWGQGTQVTVSS” as the sequence, how does the “polyreactivity (PSR sort gate)” value read?
The value was “low polyreactivity”.

Which “polyreactivity (PSR sort gate)” value does the source give for “QVQLVESGGGLVQAGGSLRLSCAASGSNFPYNAMGWYRQAPGKERELVAAITGRGGSTYYADSVKGRFTISRDNAKNTVYLHMNSLKPEDTAVYYCAAVTRNQGYYRYYYWGQGTQVTVSS” here?
Its value is “high polyreactivity”.

With “QVQLVESGGGLVQAGGSLRLSCAASGSNFRGNAMAWYRQAPGKERELVAAITYNDGGTYYADSVKGRFTISRDNAMNTVYLQMNLLKPEDTAVYYCAAVGTGNKSILYDYWGQGTQVTVSS” as the sequence, how does the “polyreactivity (PSR sort gate)” value read?
Its value is “low polyreactivity”.

For “QVQLVESGGGLVQAGGSLRLSCAASGSNFRPYAMGWYRQAPGKERELVAAISSSGGSTYYADSVKGRFTISGDNAKHTVYLQMNSLKPEDTAVYYCAKDGVSFYWLNKYYYWGQGTQVTVSS”, which “polyreactivity (PSR sort gate)” value is on record?
Its value is “low polyreactivity”.

With “QVQLVESGGGLVQAGGSLRLSCAASGSNFRYYALGWYRQAPGKERELVAGNTGSTGRTYYADSVKGRFTISRDNAKNTVYLQMNRLKPEDTAVYYCATGIYRARTSSFRMGYWGQGTHVTVSS” as the sequence, how does the “polyreactivity (PSR sort gate)” value read?
Its value is “low polyreactivity”.

Which “polyreactivity (PSR sort gate)” value does the source give for “QVQLVESGGGLVQAGGSLRLSCAASGSNFRYYAMGWYSPAPGKERELVAAISQSGGSTYSADSVKGRFTISRDNAKTTVYLQMNSLKPEDTAVYYCAARRVDTRGHVRYRYYYWGQGTQVTVSS” here?
Its value is “high polyreactivity”.

Which “polyreactivity (PSR sort gate)” value does the source give for “QVQLVESGGGLVQAGGSLRLSCAASGSNFSFNGLGWYRQAPGKERGLVAAITTSGGSTYYADSVKGRFTISRDNAKNTVYLQMNSLTPEDTAVYYCAAVGPDNSLYEPMDYWGLGTQVTVSS” here?
The value was “low polyreactivity”.
